Among the data in US20150344570A1 (published 2015) are He/Con_2b and He/Con_1a values, retold here.

The labels stand for the following.
T1: FcγRIIb extracellular domain with C-terminal His tag (human, UniProt P31994 43-217)
T1 construct: extracellular domain; expressed in FreeStyle293 cells; analyte in Biacore; also called FcgRIIb; 2b
T1 sequence (looked up): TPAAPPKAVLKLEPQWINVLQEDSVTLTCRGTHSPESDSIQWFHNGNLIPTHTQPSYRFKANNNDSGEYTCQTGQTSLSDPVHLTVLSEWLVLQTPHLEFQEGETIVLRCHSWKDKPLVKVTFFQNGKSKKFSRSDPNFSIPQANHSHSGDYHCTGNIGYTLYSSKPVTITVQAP

B1: GpH7-A5/GpH7-B3 variant K326_12R/GpL16-k0 (antibody, human IgG1, kappa)
heavy 1: not shown
heavy 2: not shown
light: DIVMTQSPLSLPVTPGEPASISCQASESLVHSNRNTYLHWYLQKPGQSPQLLIYKVSNRFSGVPDRFSGSGSGTDFTLKISRVEAEDVGVYYCSQNTHVPPTFGQGTKVEIERTVAAPSVFIFPPSDEQLKSGTASVVCLLNNFYPREAKVQWKVDNALQSGNSQESVTEQDSKDSTYSLSSTLTLSKADYEKHKVYACEVTHQGLSSPVTKSFNRGEC
notes: He Ab; IgG1, mutation in one H chain
B2: GpH7-A5/GpH7-B3 variant Q295_11K/GpL16-k0 (antibody, human IgG1, kappa)
heavy 1: not shown
heavy 2: not shown
light: B1 light
notes: as for B1
B3: GpH7-A5/GpH7-B3 variant S298_19Q/GpL16-k0 (antibody, human IgG1, kappa)
heavy 1: not shown
heavy 2: not shown
light: B1 light
notes: as for B1
B4: GpH7-A5/GpH7-B3 variant S298_04F/GpL16-k0 (antibody, human IgG1, kappa)
heavy 1: not shown
heavy 2: not shown
light: B1 light
notes: as for B1
B5: GpH7-A5/GpH7-B3 variant Y296_01G/GpL16-k0 (antibody, human IgG1, kappa)
heavy 1: not shown
heavy 2: not shown
light: B1 light
notes: as for B1
B6: GpH7-A5/GpH7-B3 variant Q295_15Y/GpL16-k0 (antibody, human IgG1, kappa)
heavy 1: not shown
heavy 2: not shown
light: B1 light
notes: as for B1
B7: GpH7-A5/GpH7-B3 variant S298_01G/GpL16-k0 (antibody, human IgG1, kappa)
heavy 1: not shown
heavy 2: not shown
light: B1 light
notes: as for B1
B8: GpH7-A5/GpH7-B3 variant S298_14T/GpL16-k0 (antibody, human IgG1, kappa)
heavy 1: not shown
heavy 2: not shown
light: B1 light
notes: as for B1
B9: GpH7-A5/GpH7-B3 variant Q295_18N/GpL16-k0 (antibody, human IgG1, kappa)
heavy 1: not shown
heavy 2: not shown
light: B1 light
notes: as for B1
B10: GpH7-A5/GpH7-B3 variant Q295_12R/GpL16-k0 (antibody, human IgG1, kappa)
heavy 1: not shown
heavy 2: not shown
light: B1 light
notes: as for B1
B11: GpH7-A5/GpH7-B3 variant Q295_16H/GpL16-k0 (antibody, human IgG1, kappa)
heavy 1: not shown
heavy 2: not shown
light: B1 light
notes: as for B1
B12: GpH7-A5/GpH7-B3 variant Y296_06M/GpL16-k0 (antibody, human IgG1, kappa)
heavy 1: not shown
heavy 2: not shown
light: B1 light
notes: as for B1
B13: GpH7-A5/GpH7-B3 variant S324_02A/GpL16-k0 (antibody, human IgG1, kappa)
heavy 1: not shown
heavy 2: not shown
light: B1 light
notes: as for B1
B14: GpH7-A5/GpH7-B3 variant S298_10E/GpL16-k0 (antibody, human IgG1, kappa)
heavy 1: not shown
heavy 2: not shown
light: B1 light
notes: as for B1
B15: GpH7-A5/GpH7-B3 variant Q295_09D/GpL16-k0 (antibody, human IgG1, kappa)
heavy 1: not shown
heavy 2: not shown
light: B1 light
notes: as for B1
B16: GpH7-A5/GpH7-B3 variant S324_03V/GpL16-k0 (antibody, human IgG1, kappa)
heavy 1: not shown
heavy 2: not shown
light: B1 light
notes: as for B1
B17: GpH7-A5/GpH7-B3 variant S298_20W/GpL16-k0 (antibody, human IgG1, kappa)
heavy 1: not shown
heavy 2: not shown
light: B1 light
notes: as for B1
B18: GpH7-A5/GpH7-B3 variant S298_02A/GpL16-k0 (antibody, human IgG1, kappa)
heavy 1: not shown
heavy 2: not shown
light: B1 light
notes: as for B1
B19: GpH7-A5/GpH7-B3 variant Y296_07I/GpL16-k0 (antibody, human IgG1, kappa)
heavy 1: not shown
heavy 2: not shown
light: B1 light
notes: as for B1
B20: GpH7-A5/GpH7-B3 variant S298_12R/GpL16-k0 (antibody, human IgG1, kappa)
heavy 1: not shown
heavy 2: not shown
light: B1 light
notes: as for B1
B21: GpH7-A5/GpH7-B3 variant S298_07I/GpL16-k0 (antibody, human IgG1, kappa)
heavy 1: not shown
heavy 2: not shown
light: B1 light
notes: as for B1

T2 sequence (P12314 16-292): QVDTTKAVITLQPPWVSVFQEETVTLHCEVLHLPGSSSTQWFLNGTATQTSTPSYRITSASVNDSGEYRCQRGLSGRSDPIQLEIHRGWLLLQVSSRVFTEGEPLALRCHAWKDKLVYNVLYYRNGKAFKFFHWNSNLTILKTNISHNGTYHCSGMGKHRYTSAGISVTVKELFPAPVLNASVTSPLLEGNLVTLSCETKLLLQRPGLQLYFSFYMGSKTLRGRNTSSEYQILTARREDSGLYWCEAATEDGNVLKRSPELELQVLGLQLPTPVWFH

In one test the target is T1, FcγRIIb extracellular domain with …. Briefly: SPR (Biacore), captured antibody, FcγR as analyte; relative binding. (In SPR one partner is held on a chip, and binding of the other changes the refractive index at the surface.)
As for B1, the He/Con_2b is 89.2 % of HeCon Ab (GpH7-A5/GpH7-B3/GpL16-k0 = 100).
Still for that read-out and setting: to B2 belongs 70.4 % of HeCon Ab (GpH7-A5/GpH7-B3/GpL16-k0 = 100); to B3, 73.3 % of HeCon Ab (GpH7-A5/GpH7-B3/GpL16-k0 = 100); to B4, 65.4 % of HeCon Ab (GpH7-A5/GpH7-B3/GpL16-k0 = 100).
On the same count and under the same terms, to B5 belongs 79.3 % of HeCon Ab (GpH7-A5/GpH7-B3/GpL16-k0 = 100).
On the same count and under the same terms, under B6 stands 65.4 % of HeCon Ab (GpH7-A5/GpH7-B3/GpL16-k0 = 100).
As to B7, the He/Con_2b was 80.1 % of HeCon Ab (GpH7-A5/GpH7-B3/GpL16-k0 = 100).
Still for that read-out and setting: under B8 stands 77.9 % of HeCon Ab (GpH7-A5/GpH7-B3/GpL16-k0 = 100); under B9, 64.9 % of HeCon Ab (GpH7-A5/GpH7-B3/GpL16-k0 = 100); under B10, 65.2 % of HeCon Ab (GpH7-A5/GpH7-B3/GpL16-k0 = 100).
The same measure, in the same setting: under B11 stands 62.7 % of HeCon Ab (GpH7-A5/GpH7-B3/GpL16-k0 = 100); under B12, 87.8 % of HeCon Ab (GpH7-A5/GpH7-B3/GpL16-k0 = 100).
Still for that read-out and setting: to B13 belongs 78.3 % of HeCon Ab (GpH7-A5/GpH7-B3/GpL16-k0 = 100); to B14, 47.6 % of HeCon Ab (GpH7-A5/GpH7-B3/GpL16-k0 = 100).
B15: the He/Con_2b is 60.8 % of HeCon Ab (GpH7-A5/GpH7-B3/GpL16-k0 = 100).
The same measure, in the same setting: to B16 belongs 97.8 % of HeCon Ab (GpH7-A5/GpH7-B3/GpL16-k0 = 100); to B17, 41.1 % of HeCon Ab (GpH7-A5/GpH7-B3/GpL16-k0 = 100); to B18, 73.4 % of HeCon Ab (GpH7-A5/GpH7-B3/GpL16-k0 = 100).
The same measure, in the same setting: to B19 belongs 84.3 % of HeCon Ab (GpH7-A5/GpH7-B3/GpL16-k0 = 100); to B20, 57.8 % of HeCon Ab (GpH7-A5/GpH7-B3/GpL16-k0 = 100).
As to B21, the He/Con_2b was 70.6 % of HeCon Ab (GpH7-A5/GpH7-B3/GpL16-k0 = 100).

The next test has as its target T2, FcγRIa extracellular domain with C-terminal His tag (human, UniProt P12314 16-292).
T2 construct: extracellular domain; expressed in FreeStyle293 cells; analyte in Biacore; also called FcgRI; 1a
The description is as above.
Turning to B1, the He/Con_1a is 100 % of HeCon Ab (GpH7-A5/GpH7-B3/GpL16-k0 = 100).
The same measure, in the same setting: under B2 stands 101 % of HeCon Ab (GpH7-A5/GpH7-B3/GpL16-k0 = 100).
Still for that read-out and setting: to B3 belongs 109 % of HeCon Ab (GpH7-A5/GpH7-B3/GpL16-k0 = 100).
The same measure, in the same setting: to B4 belongs 109 % of HeCon Ab (GpH7-A5/GpH7-B3/GpL16-k0 = 100).
Consider B5, for which the He/Con_1a was 103 % of HeCon Ab (GpH7-A5/GpH7-B3/GpL16-k0 = 100).
On the same count and under the same terms, under B6 stands 102 % of HeCon Ab (GpH7-A5/GpH7-B3/GpL16-k0 = 100).
The same measure, in the same setting: under B7 stands 104 % of HeCon Ab (GpH7-A5/GpH7-B3/GpL16-k0 = 100); under B8, 107 % of HeCon Ab (GpH7-A5/GpH7-B3/GpL16-k0 = 100); under B9, 102 % of HeCon Ab (GpH7-A5/GpH7-B3/GpL16-k0 = 100).
Still for that read-out and setting: under B10 stands 100 % of HeCon Ab (GpH7-A5/GpH7-B3/GpL16-k0 = 100); under B11, 102 % of HeCon Ab (GpH7-A5/GpH7-B3/GpL16-k0 = 100).
For the molecule B12, the He/Con_1a was 104 % of HeCon Ab (GpH7-A5/GpH7-B3/GpL16-k0 = 100).
As for B13, the He/Con_1a is 103 % of HeCon Ab (GpH7-A5/GpH7-B3/GpL16-k0 = 100).
The same measure, in the same setting: under B14 stands 108 % of HeCon Ab (GpH7-A5/GpH7-B3/GpL16-k0 = 100).
B15: the He/Con_1a is 100 % of HeCon Ab (GpH7-A5/GpH7-B3/GpL16-k0 = 100).
On the same count and under the same terms, under B16 stands 104 % of HeCon Ab (GpH7-A5/GpH7-B3/GpL16-k0 = 100); under B17, 104 % of HeCon Ab (GpH7-A5/GpH7-B3/GpL16-k0 = 100); under B18, 107 % of HeCon Ab (GpH7-A5/GpH7-B3/GpL16-k0 = 100).
For the molecule B19, the He/Con_1a is 104 % of HeCon Ab (GpH7-A5/GpH7-B3/GpL16-k0 = 100).
Same read-out and setting: to B20 belongs 109 % of HeCon Ab (GpH7-A5/GpH7-B3/GpL16-k0 = 100).
Consider B21, for which the He/Con_1a is 107 % of HeCon Ab (GpH7-A5/GpH7-B3/GpL16-k0 = 100).
